The record followed here is paper PMC2195798 (The Journal of Experimental Medicine, 2000).

For experiment [1], the target named is T1, CC chemokine receptor 8 (CCR8) (human, UniProt P51685 1-355). Description: radioligand binding.
Experiment [2] concerns the target T1, CC chemokine receptor 8 (CCR8). Description: radioligand binding. The source holds these as a separate data set.

Read-outs that look alike come from different tables or passages of the source.

T1 sequence (P51685 whole entry): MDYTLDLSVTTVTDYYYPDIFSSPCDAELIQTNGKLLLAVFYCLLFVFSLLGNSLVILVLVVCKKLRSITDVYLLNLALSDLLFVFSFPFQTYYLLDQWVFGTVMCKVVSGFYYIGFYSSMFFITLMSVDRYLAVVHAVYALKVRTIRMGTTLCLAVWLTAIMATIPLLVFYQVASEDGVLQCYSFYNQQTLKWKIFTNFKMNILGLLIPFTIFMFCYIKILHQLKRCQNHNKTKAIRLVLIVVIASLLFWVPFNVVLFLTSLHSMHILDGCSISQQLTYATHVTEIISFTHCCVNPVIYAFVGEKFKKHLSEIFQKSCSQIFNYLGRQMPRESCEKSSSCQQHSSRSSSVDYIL

B1: I-309 (ligand, human, UniProt P22362 24-96, looked up)
chain: KSMQVPFSRCCFSFAEQEIPLRAILCYRNTSSICSNEGLIFKLKRGKEACALDTVGWVQRHRKMLRHCPSKRK
With B1, the IC50 in experiment [1] was 0.52 nM.

B2: viral macrophage inflammatory protein (vMIP)-II encoded by human herpesvirus 8 (HHV8) (ligand, UniProt Q98157 21-94, looked up)
chain: GDTLGASWHRPDKCCLGYQKRPLPQVLLSSWYPTSQLCSKPGVIFLTKRGRQVCADKSKDWVKKLMQQLPVTAR
B2 returned an IC50 in experiment [1] of 27.8 nM.

B3: MC148 CC chemokine from molluscum contagiosum virus (MCV), processed secreted protein (ligand, molluscum contagiosum virus subtype 1, UniProt Q98314 1-104, looked up)
chain: LARRKCCLNPTNRPIPNPLLQDLSRVDYQAIGHDCGREAFRVTLQDGRQGCVSVGNKSLLDWLRGHKDLCPQIWSGCESL
As for B3, the IC50 in experiment [1] was found to be 0.47 nM; in experiment [2], 0.27 nM.
